Test: yeast display, Sf9 membrane polyspecificity reagent, FACS + sequencing; frameworks hold sequencing errors
Method in brief: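 Using colony PCR, genes from sorted yeast display clones were amplified, then sequenced on MiSeq at 2 × 250 and filtered by CDR length. The clones had been stained with 10% biotinylated, detergent-solubilized Sf9 membrane reagent for 1 hour at 4 °C and sorted by FACS into low and high (top ~1%) gates on anti-HA and streptavidin fluorescence. Polyreactivity labels come from the gate of origin.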

| Sequence | polyreactivity (PSR sort gate) |
| --- | --- |
| QVQLVESGGGLVQAGGSLRLSCAASGRIFGPYAMGWYRQAPGKERELVATITWSGVSTYYADSVKGRFTISRDNAKNTVYLQMNSLKPEDTAVYYCNAKRTGQWFLHVPVYYWGQGTQVTVSS | low polyreactivity |
| QVQLVESGGGLVQAGGSLRLSCAASGSTGVNTMGWYRQAPGKERQLVAAIRATGGSTYYADSVKGRFTISRENAKNTVYFQMNSLKPEDTAVYYCNAYRRSYRWYGDLGEYWGQGTQVTVSS | high polyreactivity |
| QVQLVESGGGLVQAGGSLRLSCAASGSIVVWNDMGWYRQAPGTEREFVAAITSRDGSTYYADSVKGRFTISRDNAKNTVYLQMNSLKPEDTAVYYCAARLRVTVFYSRTRYYWGQGTQVTVSS | low polyreactivity |
| QVHLVESGGGLVQAGGSLGLSCAASGNIFSSNAMGWYTQAPGKERELVDAITRSGGSTYYADSVKGRFTISRDNAKKTVYLQLNSQKPEDTAVYYGAARHYPRNSWGYDYWGQGTQVTVSS | high polyreactivity |
| QVQLVESGGGLVQAGGSLRLSCAASGISSWYYAMGWYRQAPGKERELVAAITSDGRTNYADSVKGRFTISRDNAKNTVYLQMKSLKPEDTAVYYCAAARRVGVSHYRYGYWGHGTQVTVSS | high polyreactivity |
| QVQLVESVGGLVQAGGSLRLSCAASGRTFRFYTMGWYRQAPGKERELVADISWTSGRTYYADSVKGRFTISRDNAKNTVYLQMKSLKPEDTAVYYCAAYFFSRYSLYDYWGQGTQVTVSS | high polyreactivity |
| QDQLVESGGGLFQAGGSLRLSCGASGFIFRWNAMGWSRQAPGKEREMVAAITRGGSTYYADSVKGRFSISRDNAKNTVYLQMNSLKPEDTAVYFCAAGYVYRGASGGYWGQGTQVTVSS | high polyreactivity |
| QVQLVESGGGLVQAGGSLRLSCSASGSTFVVYAMGWSRQAPGKERELVAAISESGSSTYYADSVKGRFTISRDNAKNTVYLQMNSLKPEDTAVYYCNALYYDWHPEYQVIFSDFYYWGQGTQVTVSS | low polyreactivity |
| QVQLVESGGGLVQAGGSLRLSCAASGFIFRKYAMGWYRQAPGKERELVAAITSSGGSTYYADSVKGRFTISRDNAKNTVYLQMNSLKPEDTAVYYCAARLKQSGHDYWGQGTQVTVSS | high polyreactivity |
| QVQLVESGGGLVQAGGRLSLSCAASGSIFRPNPMGWYRQAPGKERELVAAITWSGDSTYYADSVKGRFTISRDNAKNTVYLKMNSLKPEDTAVYYCAADFTYQGSSANDYWGQGTQVTVSS | low polyreactivity |
| QVQLVESGGGLVQAGGSLRLSCAASGSIFLVYAMGWYRQAPGKERELVAAISQRVGRTYYADSVKGRFTISRDNAKNTVYLQMNSLKPEDTAVYYCNARVYDPTRGFNYWGQGTQVTVSS | high polyreactivity |
| QDQLVESGGGLVQAGGSLRLSCAASVSIFASYAMGRYRPAPGKERELVAAISSRGSRTYYADSVKGRFTISRDNAKNTVYLQMNRLKPQDTAVYYCAAYSPDYYNAEFGYWGQGTHVTVSS | high polyreactivity |
| QVQLVESGGGLVQAGGSLRLSCAASGIIFSIYAMGWYRQAPGKERELVAAISGRGGRTYYADSVKGRFTISRDNAKNTVYLQMNSLKPVDTAVYYCIAEYLDLYDYWGQGTQVTVSS | low polyreactivity |
| QVQLVESGGGLVQAGGSLRLSCAASGFTIKYNTMGWYRQAPGKERELVAAITSNTGSTYYADSVKGRFTISRDNAKNTVYLQMNSLKPEDTAVYYCAVTSYYRRYGYWGQGTQVTVSS | high polyreactivity |
| QVQLVESGGALVQAGGSLRLSCAASGNIFVYYAMGGYRQAPGKERELVAAITSDVSTYYADSVKGRFTISRDNAKNTVYLQMNSLKPEDTAVYYCATTGYGSYVIYWGQGTQVTVSS | low polyreactivity |
| QVQLVESGGGLVQAGGSLRLSCADSGSIFRDNVMGWYRQAPGKEREFVAAISRRGGITYYADSVKGRFTISRDNAKNTVYLQMNSLKPEDTAVYYCATTGGRQYGYWGQGTQVTVSS | high polyreactivity |
| QVQLVESGGGLVQAGGILRLSCAASGRIIQRYAMGWYRQAPGKERELVAAISSSGVSTYYADSVKGRFTISRDNAKNTVYLQMNSLKPEDTAVYYCNAVSSRVYRDYGYDYWGQGTQVTVSS | low polyreactivity |
| QVQLVESGGGLVQAGGSLRLSCAASGSIFSPNAMGWYRQAPGKERELVAAITRGGSTYYADSVKGRFTISRDNAKKTVYLQMNSLKPEDTAVYYCAKRSKQFSTQYLYGYWGQGTQVTVSS | low polyreactivity |
| QDQLVESGGGLVQAGGSLRLSCAASGRIFVVYAMGCYRQAPGKERELVAAITGGGRTNYADSVKGRFTISRENAKNTVYLQMKSLKPEDTAVYYCAAGTRSDARRYFYWGQGTQVTVSS | low polyreactivity |
| QVQLVESGGGLVQAGGRLRLSCAASGYIFYYNAIGWYRQAPGKERELVAAITSDDSTYYADSVKGRFTISRDNAKNTVYLQMNSLKPEDTAVYYCNAVRYGHWYDYWGQGTQVTVSS | low polyreactivity |
| QVQLVESGGGLVQAGGSLRLSCDASGRTFYVYAMGWYRQAPGKERELVAAISSSGGSTYYADSVKGRFTISRDNAKNTVYLQMNSLKPEDTAVYYCAVVTPRYYGDTKYDYWGQGTQVTVSS | high polyreactivity |
| QVQLVESGGGLVQAGGSLRLSCAASGSTFVTNDMGWYRQAPAKERELVAAISSGTSTNYADSVKGRFTISRDNAKNTVYLQMNSLKPEDTAVYYCAADSLKRYDYWGHGTQVTVSS | low polyreactivity |

| Sequence | polyreactivity (PSR sort gate) |
| --- | --- |
| QVQLVESGGGLVQAGGSLRLSCAASGSIFPGYTMGWYRQAPGKERELVAAITSSGGSTYYADSVKGRFTISRDNAKNTVYLQMNSLKPEDTAVYYCAADTTNYFDPFDYWGQGTQVTVSS | low polyreactivity |
| QVQLVESGGGLVQAGGSLRLSCAASGSIFSYYAMGWYRQAPGKERELVAANDWNVDSTYYADSVKGRFTISRDNAKNTVYLQLNSLNPEDTAVYYCNAEVYYFYTRYTWYLYDYWRQGTQVTVSS | low polyreactivity |
| QVQLVESGGGLVQAGGSLRLSCAASGRTFRKFAMGWYRQAPGKERELVAASSWSGGSTYYANSVKGRFTISRDNAKNTVYLQMNSLKPDDTAVYYCAAVPVHTGSLYWGFTTGYDYWGQGTQVTVSS | low polyreactivity |
| QVQLVESGGGLVQAGGSLRLSCAASGRTFSWYAMGWYRQAPGKEREFVAAITSGGSTYYADSVKGRFTISRDNAMNTVYLQMNSLKPEDTAVYYCAAYGYWGQGTQVTVSS | high polyreactivity |
| QVQLVESGGGLVQAGGSLRLSCSASGSIFGGYAMGWYRQAPGKEREFVAAISRRGASTYYADSVKGRYTISRDNAKNTVYLQMNSLKPEDTAVYYCNARAYGRIDGLSATYGYWGQGTQVTVSS | high polyreactivity |
| QVQLVESAGGLVQAGGSLRLSCAASGSTFPKYAMGWSRQAPGKERELVASISVTTGSTYYADSVKGRFTISRDNAKNTVYLQMNSLKPEDTAVYYCAKRTYSRKFRGAYNYGGQGTQVTVSS | high polyreactivity |
| QVQFEESGGGLVQAGGSLRLSCAASGSTFQGYAMGWYRQAPGKERELVAAISRSGGRTYYADSVKGRFTISRDNAKNTVYLQMNSLKPEDTAVYYCAAEGHELTEGDSWGQGTQVTVSS | low polyreactivity |
| QVQLVESGGGLVQAGGSLRLSCAASGLIFLQYGLGWYRQAPGKERALVAAITTRGGRTYYADSVKGRFTISRDNANNTVYLQMNSLKPEDTAVYYCAADSEQDNLRYYRWVWYYYWGQGTQVTVSS | low polyreactivity |
| QVQLVESGGGLVQAGGSLRLSCAASGRIFYLKAMGWYRQAPGTERELVAAINTSGDSTYYADSVKGRFTISRDNAKNTVDLQMNSLKPEDTAVSYCAAYVIGPDQFIYDYWGQGTQVTVSS | low polyreactivity |
| QVQLVEAGGGLVQAGGSLRLSCAASGITFGDNAMGWYIQAPGKDRELVAAITLSDVDTYADSVKGRFTISRDNSKNTVYLQMISLKPEDTAVYDCAADYDFFSLYLYDYWGQGTQVTVSS | low polyreactivity |
| QVQLVESGGGLVQAGGSLRLTCAASGSIFRSYAMGWYRQAPGNERELVAAISWRGGRTYYADSVKGRFTISRDNAKNTVYLQRNSLKPADTAVYYCAARKRAQQGTRDHDYWGQGTQVTVSS | high polyreactivity |
| QVQLVESGGGLVQAGGSLRLSCAASGFTFTRYAMGWYRQAPGKERELVAAISSCGDTYYADSVKGRFTISRDNAKNTVYLQMNSLKPEDTAVYYCAADQSSLDYGNDYWGQGTQVTVSS | low polyreactivity |
| QVQLVESGGGLVQAGGSLRLSCAASGFTFVINDMGLYRQAPGKERELVADITSGGDTYYADSVKGRFTISRDNAKNTVYLQMNSLKPEDTAVYYCAADIYPDWIYLLYGYWGQGTQVTVSS | low polyreactivity |
| QVQLVESGGGLVQAGGSLRLSCAASGYIFYPYTMGWYRPAPGKERELVAAITRSGSSTYYADSVKGRFTISRDNAKNTVYLQMNSLKPEDTAVYYCAAQRVNWYLSPSLYYYWGQGTQVTVSS | high polyreactivity |
| QVQLVESGGGLVQAGGSLRLSCAASGGTFKRYAMGWYRQAPGKERELVAAISGRGGSTYYADSVKGRFTISRDNAKTTVYLQMNSLKPEDTAVYYCNAGGSPQFYGRSKGDYWGQATQVTVSS | high polyreactivity |
| QVQLVESGRGLVQAGGSLRLSCAASGSTFYANTMGWYRQAPGKERELVAAISQSGGSTYYADSVKGRFTISRDNAKNTVYLQMNSLKPEDTAVYYCAARRLPRKERKLYYWGQGTQVTVSS | high polyreactivity |
| QVQLVESGGGLVQAGGSLRLTSAASGRIIDQNAMGWYRQAPGKERELVAAITSGGSTNYADSVKGRFTISRDNAKNTVYLQMNSLKPEDTAVYYCNSRDASRRYDYDFLERDSWGQGTQVTVSS | low polyreactivity |
| QVQHVESGGGLVQAGGSLRLSCAASGSIFAGYANGWYRKAPGKERELVARITDRGGSTDYADSVKGRYTISRDNAKNTVYLQMNSLKPEDTAVYSCAKRGDRYEKRPRDYWGQGTQVTVSS | low polyreactivity |
| QVQLVESGGGLVQAGGSLRLSCAASGSIFQYNAMGWSRQAPGKERELVAAIRTNYADSVKGRFTISRDNAKNTVYLQMNSLKPEDTAVYYCAAESSQTPTSAFDYWGQGTQVTVSS | low polyreactivity |
| QVQLVESGGGLVQAGGSLRLSCAASGRIFVFNAMGWYRQAPGKERELVASISSSGGSTYYADSVKGRFTISRDNAKNTVYLQINSLKPEDTAVYYCARRSYHSRYNYWGQGTQVTVSS | high polyreactivity |
| QVQLEESGGGLVQAGGSLRLSCAASGFTFGSYAMGWYRQAPGKEREFVAAISLGGARTYYADSVKGRFTMSRDNAKNTVYLQMHSLKPEDTAVYYGNARGIGRSTKWSSRDYWGQGTQVTVSS | high polyreactivity |
